This note sets out measurements from patent US7078038 (INSTITUT DE RECHERCHE POUR LE DEVELOPPEMENT I R D, dated 2006).

This test addresses T1, W338S gp120 (rgp120 of the HXB2 clone of HIV-IIIB with the W338S mutation) (HIV-1 (HXB2 clone of HIV-IIIB), UniProt P04578 33-511).
T1 construct: domain: gp120; Position counted in HxBc2 numbering; also called muted gp120; mutant gp120
Kind of test: FACS on CEM cells: no labelling by anti-CXCR4 12GS after incubation with gp120.

B1: CXCR4 receptor on the cell surface (receptor)
chain: MEGISIYTSDNYTEEMGSGDYDSMKEPCFREENANFNKIFLPTIYSIIFLTGIVGNGLVILVMGYQKKLRSMTDKYRLHLSVADLLFVITLPFWAVDAVANWYFGNFLCKAVHVIYTVNLYSSVLILAFISLDRYLAIVHATNSQRPRKLLAEKVVYVGVWIPALLLTIPDFIFANVSEADDRYICDRFYPNDLWVVVFQFQHIMVGLILPGIVILSCYCIIISKLSHSKGHQKRKALKTTVILILAFFACWLPYYIGISIDSFILLEIIKQGCEFENTVHKWISITEALAFFHCCLNPILYAFLGAKFKTSAQHALTSVSRGSSLKILSKGKRGGHSSVSTESESSSFHSS
notes: whole, on cells; also called CXCR4 co-receptor; CEM cells CD4+/CXCR4+
Consider B1, for which the binding result is given as “binds”.
